The assay concerns the target T1, LRP1 (low density lipoprotein receptor-related protein 1), endogenous in HEK293T cells (human, UniProt Q07954 20-4544).
T1 construct: Endogenous protein in HEK293T lysates (TAP-MS prey, co-IP); also called endogenous LRP1
Description: TAP-MS of SFB-tagged Notch pathway proteins in HEK293T cells. The method, then:
We picked 12 clones of each bait for the follow-up experiments and confirmed the bait protein expression and localization using Western blotting and immunostaining, respectively. From which, we chose two clones of each bait with the correct subcellular localization and a moderate expression close to that of endogenous one as biological repeat for TAP-MS analysis. HEK293T cells stably expressing C-terminal SFB-fused Notch pathway proteins were selected via culture in medium containing 2 μg/ml puromycin. Protein expression was confirmed via immunostaining and Western blotting as described previously (Wang, W., Li, X., Huang, J., Feng, L., Dolinta, K. G., and Chen, J. (2014). Defining the protein-protein interaction network of the human hippo pathway. Mol Cell Proteomics 13, 119-131.).
For TAP experiments, the membrane-bound and soluble proteins of 2×10⁸ HEK293T cells were extracted using a membrane/soluble protein isolation kit (Beyotime, China) with protease inhibitors at 4° C. The insoluble pellets from the crude lysis step were briefly sonicated and incubated with TurboNuclease for 30 min at 37° C. with occasional vortexing to extract chromatin-bound protein complexes. The lysates were then centrifuged at 14,000 rpm for 30 min at 4° C., and the supernatant was collected as a chromatin fraction. […]

T1 sequence (Q07954 20-4544 limits assumed): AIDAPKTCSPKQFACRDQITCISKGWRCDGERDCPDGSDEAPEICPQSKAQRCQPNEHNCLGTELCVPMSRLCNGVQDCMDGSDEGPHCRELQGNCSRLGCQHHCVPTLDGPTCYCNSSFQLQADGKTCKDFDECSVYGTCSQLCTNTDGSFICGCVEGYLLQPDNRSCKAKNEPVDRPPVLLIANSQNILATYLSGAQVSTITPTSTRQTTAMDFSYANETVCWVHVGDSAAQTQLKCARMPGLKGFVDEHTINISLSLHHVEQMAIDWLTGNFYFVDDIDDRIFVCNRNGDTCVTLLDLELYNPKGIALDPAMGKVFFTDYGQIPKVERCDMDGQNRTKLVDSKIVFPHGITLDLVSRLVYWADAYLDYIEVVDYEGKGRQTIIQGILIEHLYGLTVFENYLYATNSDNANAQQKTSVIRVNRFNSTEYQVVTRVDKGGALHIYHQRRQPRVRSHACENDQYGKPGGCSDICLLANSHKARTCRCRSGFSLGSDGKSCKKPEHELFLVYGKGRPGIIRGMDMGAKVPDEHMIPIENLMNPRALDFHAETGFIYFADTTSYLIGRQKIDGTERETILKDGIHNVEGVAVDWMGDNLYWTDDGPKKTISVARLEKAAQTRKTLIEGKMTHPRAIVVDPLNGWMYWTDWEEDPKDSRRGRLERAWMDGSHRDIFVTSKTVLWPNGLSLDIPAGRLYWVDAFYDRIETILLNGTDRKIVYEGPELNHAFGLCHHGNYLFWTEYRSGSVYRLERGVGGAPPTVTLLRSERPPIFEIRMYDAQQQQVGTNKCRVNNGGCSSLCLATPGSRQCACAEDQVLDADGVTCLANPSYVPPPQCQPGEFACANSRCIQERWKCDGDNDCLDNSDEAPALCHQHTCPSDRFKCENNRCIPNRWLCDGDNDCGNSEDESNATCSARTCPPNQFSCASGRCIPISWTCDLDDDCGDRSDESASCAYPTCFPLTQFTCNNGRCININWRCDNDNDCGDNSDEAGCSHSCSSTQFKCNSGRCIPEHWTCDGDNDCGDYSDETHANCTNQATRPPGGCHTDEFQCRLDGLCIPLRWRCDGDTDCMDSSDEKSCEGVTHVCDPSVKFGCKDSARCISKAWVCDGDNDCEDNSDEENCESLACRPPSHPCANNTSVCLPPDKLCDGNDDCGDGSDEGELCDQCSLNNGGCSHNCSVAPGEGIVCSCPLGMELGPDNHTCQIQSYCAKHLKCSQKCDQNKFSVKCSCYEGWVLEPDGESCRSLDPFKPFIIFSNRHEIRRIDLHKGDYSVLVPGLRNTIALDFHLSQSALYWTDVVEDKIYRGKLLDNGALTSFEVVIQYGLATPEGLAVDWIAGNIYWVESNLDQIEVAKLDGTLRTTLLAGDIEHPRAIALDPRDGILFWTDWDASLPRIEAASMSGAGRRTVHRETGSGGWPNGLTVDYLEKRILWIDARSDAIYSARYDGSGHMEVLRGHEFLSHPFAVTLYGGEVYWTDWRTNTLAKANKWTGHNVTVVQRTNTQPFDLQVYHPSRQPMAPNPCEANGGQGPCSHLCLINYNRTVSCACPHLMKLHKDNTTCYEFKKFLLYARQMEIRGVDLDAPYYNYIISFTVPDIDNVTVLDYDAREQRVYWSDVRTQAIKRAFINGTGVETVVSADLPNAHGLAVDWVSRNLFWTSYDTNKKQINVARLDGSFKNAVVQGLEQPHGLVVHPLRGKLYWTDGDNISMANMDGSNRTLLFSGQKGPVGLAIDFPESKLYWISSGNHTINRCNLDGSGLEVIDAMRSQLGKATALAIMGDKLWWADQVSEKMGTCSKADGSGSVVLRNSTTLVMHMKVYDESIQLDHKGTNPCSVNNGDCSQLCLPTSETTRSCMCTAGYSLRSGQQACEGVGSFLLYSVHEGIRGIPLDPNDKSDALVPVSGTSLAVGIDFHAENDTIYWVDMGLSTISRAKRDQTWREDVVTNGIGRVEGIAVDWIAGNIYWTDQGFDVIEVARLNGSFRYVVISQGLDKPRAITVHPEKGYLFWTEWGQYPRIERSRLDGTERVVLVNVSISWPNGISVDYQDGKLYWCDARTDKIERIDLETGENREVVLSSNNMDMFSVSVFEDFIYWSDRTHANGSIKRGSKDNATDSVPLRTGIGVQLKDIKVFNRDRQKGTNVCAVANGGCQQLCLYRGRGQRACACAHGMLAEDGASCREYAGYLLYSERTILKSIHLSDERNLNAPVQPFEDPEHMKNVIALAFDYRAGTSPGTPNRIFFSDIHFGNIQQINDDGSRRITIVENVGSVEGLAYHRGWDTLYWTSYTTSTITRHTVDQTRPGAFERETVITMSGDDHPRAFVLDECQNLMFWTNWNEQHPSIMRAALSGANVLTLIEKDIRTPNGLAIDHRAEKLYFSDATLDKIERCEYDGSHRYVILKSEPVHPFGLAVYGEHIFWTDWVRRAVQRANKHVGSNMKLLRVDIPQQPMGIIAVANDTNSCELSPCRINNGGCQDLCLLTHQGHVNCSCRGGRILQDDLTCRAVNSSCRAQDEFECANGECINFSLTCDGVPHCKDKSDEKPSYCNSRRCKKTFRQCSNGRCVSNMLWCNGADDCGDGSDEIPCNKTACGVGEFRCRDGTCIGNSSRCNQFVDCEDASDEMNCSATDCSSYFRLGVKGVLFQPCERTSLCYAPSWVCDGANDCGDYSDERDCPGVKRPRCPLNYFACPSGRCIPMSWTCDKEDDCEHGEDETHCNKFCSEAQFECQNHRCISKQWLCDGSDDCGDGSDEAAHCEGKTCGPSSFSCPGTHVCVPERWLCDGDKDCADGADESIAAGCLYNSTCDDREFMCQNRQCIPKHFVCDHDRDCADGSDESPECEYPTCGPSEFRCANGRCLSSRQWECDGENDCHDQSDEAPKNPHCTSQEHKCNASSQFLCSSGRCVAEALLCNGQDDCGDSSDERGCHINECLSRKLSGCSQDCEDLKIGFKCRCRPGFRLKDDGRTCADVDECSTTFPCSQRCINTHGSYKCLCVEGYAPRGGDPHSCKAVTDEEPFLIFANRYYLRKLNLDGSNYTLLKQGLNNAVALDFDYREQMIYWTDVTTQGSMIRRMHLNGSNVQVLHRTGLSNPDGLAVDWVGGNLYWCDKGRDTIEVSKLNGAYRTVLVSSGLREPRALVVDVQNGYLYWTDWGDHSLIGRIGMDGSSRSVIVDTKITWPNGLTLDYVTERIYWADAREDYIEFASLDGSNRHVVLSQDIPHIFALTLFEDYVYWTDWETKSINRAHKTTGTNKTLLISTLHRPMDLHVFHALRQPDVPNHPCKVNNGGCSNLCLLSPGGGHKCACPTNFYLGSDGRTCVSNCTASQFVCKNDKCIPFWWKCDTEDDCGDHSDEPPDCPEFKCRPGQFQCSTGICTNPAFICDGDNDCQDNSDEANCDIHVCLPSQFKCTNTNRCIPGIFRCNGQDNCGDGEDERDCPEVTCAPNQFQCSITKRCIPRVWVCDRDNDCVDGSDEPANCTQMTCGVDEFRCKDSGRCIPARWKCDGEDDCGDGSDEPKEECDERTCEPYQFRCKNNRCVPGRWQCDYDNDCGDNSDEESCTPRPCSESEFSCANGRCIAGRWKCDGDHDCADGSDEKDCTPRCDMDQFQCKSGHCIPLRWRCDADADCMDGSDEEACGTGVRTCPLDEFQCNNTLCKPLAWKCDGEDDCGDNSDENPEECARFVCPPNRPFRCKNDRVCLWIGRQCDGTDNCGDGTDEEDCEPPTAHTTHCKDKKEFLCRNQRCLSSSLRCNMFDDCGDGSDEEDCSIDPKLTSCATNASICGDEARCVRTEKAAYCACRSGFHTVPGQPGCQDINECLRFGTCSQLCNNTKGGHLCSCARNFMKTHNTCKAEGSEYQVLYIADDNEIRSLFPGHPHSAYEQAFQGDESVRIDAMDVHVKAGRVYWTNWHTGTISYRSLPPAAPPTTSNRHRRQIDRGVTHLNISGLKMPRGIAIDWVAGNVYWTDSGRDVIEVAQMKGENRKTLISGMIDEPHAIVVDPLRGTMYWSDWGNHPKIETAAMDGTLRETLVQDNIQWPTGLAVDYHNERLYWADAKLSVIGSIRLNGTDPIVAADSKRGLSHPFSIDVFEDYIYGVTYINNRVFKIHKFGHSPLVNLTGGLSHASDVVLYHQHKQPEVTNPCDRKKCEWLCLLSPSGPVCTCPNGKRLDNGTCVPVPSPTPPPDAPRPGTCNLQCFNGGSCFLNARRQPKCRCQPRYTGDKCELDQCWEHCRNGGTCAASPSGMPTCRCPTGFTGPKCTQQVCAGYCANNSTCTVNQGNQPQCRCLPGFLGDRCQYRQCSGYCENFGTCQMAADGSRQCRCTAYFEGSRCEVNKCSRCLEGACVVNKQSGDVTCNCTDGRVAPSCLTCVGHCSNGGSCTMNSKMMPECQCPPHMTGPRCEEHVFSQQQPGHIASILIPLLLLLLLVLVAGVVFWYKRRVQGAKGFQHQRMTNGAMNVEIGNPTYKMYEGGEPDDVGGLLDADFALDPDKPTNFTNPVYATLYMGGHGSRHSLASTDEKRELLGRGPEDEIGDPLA

B1: cSFB-tagged wild-type DLL3 (ligand, human, UniProt Q9NYJ7 27-618, looked up)
chain: AGVFELQIHSFGPGPGPGAPRSPCSARLPCRLFFRVCLKPGLSEEAAESPCALGAALSARGPVYTEQPGAPAPDLPLPDGLLQVPFRDAWPGTFSFIIETWREELGDQIGGPAWSLLARVAGRRRLAAGGPWARDIQRAGAWELRFSYRARCEPPAVGTACTRLCRPRSAPSRCGPGLRPCAPLEDECEAPLVCRAGCSPEHGFCEQPGECRCLEGWTGPLCTVPVSTSSCLSPRGPSSATTGCLVPGPGPCDGNPCANGGSCSETPRSFECTCPRGFYGLRCEVSGVTCADGPCFNGGLCVGGADPDSAYICHCPPGFQGSNCEKRVDRCSLQPCRNGGLCLDLGHALRCRCRAGFAGPRCEHDLDDCAGRACANGGTCVEGGGAHRCSCALGFGGRDCRERADPCAARPCAHGGRCYAHFSGLVCACAPGYMGARCEFPVHPDGASALPAAPPGLRPGDPQRYLLPPALGLLVAAGVAGAALLLVHVRRRGHSQDAGSRLLAGTPEPSVHALPDALNNLRTQEGSGDGPSSSVDWNRPEDVDPQGIYVISAPSIYAREVATPLFPPLHTGRAGQRQHLLFPYPSSILSVK
notes: Expressed in HEK293T cells, pulled down on S beads; also called cSFB-DLL3; C-terminal SFB-fused DLL3; not shown: C-terminal SFB triple tag (S protein tag-2xFLAG tag-SBP tag)
For B1, the binding result is reported as “binds”.
